Test results reported in publication PMC4356368, “Four crystal structures of human LLT1, a ligand of human NKR-P1, in varied glycosylation and oligomerization states” (Acta Crystallographica Section D: Biological Crystallography, 2015).
Each block holds one molecule with its values, some of them ahead of it.

Columns and labels:
[1] = biological target: LLT1 produced in the HEK293T cell line with wild-type complex N-glycosylation (human); assay: AUC; sedimentation velocity, 50 000 rev/min, 20°C, absorbance 280 nm, 10 mM HEPES pH 7.5, 150 mM NaCl, 10 mM NaN3; several concentrations (HEK293T protein at 0.2 mg/ml and tenfold diluted; GnTI- protein at five concentrations); continuous size-distribution and monomer-dimer self-association models; dimer to monomers
[2] = biological target: the molecule itself; assay: crystal structure; LLT1_D1 and LLT1_D2: deglycosylated protein, 30%(w/v) PEG 6000, 0.1 M HEPES pH 7.0, 294 K; one dimer in the asymmetric unit, P212121
[3] = biological target: the molecule itself; assay: crystal structure; LLT1_glyco: GlcNAc2Man5-glycosylated protein, 40%(v/v) PEG 300, 0.1 M citrate-phosphate pH 4.2, 288 K; P6322, hexamer of three dimers by crystal symmetry
[4] = biological target: the molecule itself; assay: AUC; sedimentation velocity, 50 000 rev/min, 20°C, absorbance 280 nm, 10 mM HEPES pH 7.5, 150 mM NaCl, 10 mM NaN3; several concentrations (HEK293T protein at 0.2 mg/ml and tenfold diluted; GnTI- protein at five concentrations); continuous size-distribution and monomer-dimer self-association models; dimer to monomers
[5] = biological target: the molecule itself; assay: dynamic light scattering; 1 mg/ml in 10 mM HEPES, 150 mM NaCl, 10 mM NaN3 pH 7.5; 291, 298 and 303 K

stoichiometry N [1]: 2
Molecule: LLT1 produced in the HEK293T cell line with wild-type complex N-glycosylation (domain or fragment)

B1: Human LLT1 C-type lectin-like extracellular domain (Gln72-Val191, His176Cys), deglycosylated after the first N-acetylglucosamine unit (domain or fragment)
chain: ITGQAACPESWIGFQRKCFYFSDDTKNWTSSQRFCDSQDADLAQVESFQELNFLLRYKGPSDHWIGLSREQGQPWKWINGTEWTRQFPILGAGECAYLNDKGASSARCYTERKWICSKSDIHV
modifications: single N-linked GlcNAc left at Asn95 and Asn147 after Endo F1
notes: remnant of the secretion leader at the beginning of the chain; LLT1 (lectin-like transcript 1), human, UniProt Q9UHP7 isoform 1, CTL extracellular domain Gln72-Val191 with His176 to Cys176; Same polypeptide as m1; it differs only in the glycans; L-arginine-HCl (0.4 M) was added after deglycosylation; also called LLT1_mono; LLT1_D1
stoichiometry N [2]: 2

B2: Human LLT1 C-type lectin-like extracellular domain (Gln72-Val191, His176Cys) with homogeneous GlcNAc2Man5 N-glycosylation (domain or fragment)
chain: B1 chain
modifications: N-linked GlcNAc2Man5 glycans at Asn95 and Asn147
notes: remnant of the secretion leader at the beginning of the chain; LLT1 (lectin-like transcript 1), human, UniProt Q9UHP7 isoform 1, CTL extracellular domain Gln72-Val191 with His176 to Cys176; the construct is described in Bláha et al. (2015); also called LLT1_glyco; glycosylated LLT1; source: HEK293S GnTI- cells, transiently transfected, secreted, purified (Talon IMAC, Superdex 200 SEC)
stoichiometry N [3]: 6 | Kd [4]: ~20 µM | stoichiometry N [5]: 2
